Paper PMC10894068

What was measured:
Assay in all cases: BLI
UIMC1(76-128) (human) = UIMC1(76-128) (human) (UniProt Q96RL1)
USP37(700-851) (human) = USP37(700-851) (human) (UniProt Q86T82)
AN13A(479-594) (human) = target: AN13A(479-594) (human)

UniProt Q96RL1, sequence (Q96RL1 76-128): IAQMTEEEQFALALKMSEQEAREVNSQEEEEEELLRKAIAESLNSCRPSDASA
UniProt Q86T82, sequence (Q86T82 700-851): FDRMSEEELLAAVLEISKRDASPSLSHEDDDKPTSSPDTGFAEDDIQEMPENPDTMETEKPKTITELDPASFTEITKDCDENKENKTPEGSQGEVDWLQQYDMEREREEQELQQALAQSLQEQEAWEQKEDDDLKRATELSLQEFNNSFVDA

Q: Which Kd (UIMC1(76-128) (human)) does the source give for “K63-diUb containing a native linkage (from UniProt P0CG47 1-76) (complex)” here?
A: The Kd was 2170 nM.

Q: What about the Kd (USP37(700-851) (human)) of the same substance?
A: The Kd was 4970 nM.

Q: And the Kd (AN13A(479-594) (human))?
A: Its Kd is 250 nM.

Q: “K11/K63-triUb-(1,0) (triUb-NC(1,0)) (from UniProt P0CG47 1-75; P0CG47 1-76; P0CG47 1-76) (complex)” was tested. Which Kd (UIMC1(76-128) (human)) did it give?
A: Its Kd is 1040 nM.

Q: And the Kd (USP37(700-851) (human))?
A: Its Kd is 3360 nM.

Q: What about the Kd (AN13A(479-594) (human)) of the same substance?
A: Its Kd is 430 nM.

Q: Which results are given for “K11-diUb (from UniProt P0CG47 1-76) (complex)”?
A: Kd (UIMC1(76-128) (human)): 2920 nM; Kd (USP37(700-851) (human)): 8890 nM; Kd (AN13A(479-594) (human)): 1280 nM

Q: With “K11/K48-triUb-(1,0) (triUb-NC(1,0)) (from UniProt P0CG47 1-75; P0CG47 1-76; P0CG47 1-76) (complex)” as the substance, how does the Kd (AN13A(479-594) (human)) read?
A: Its Kd is 7830 nM.

Q: Which Kd (UIMC1(76-128) (human)) does the source give for “K63/K48-triUb-(1,0) (triUb-NC(1,0)) (from UniProt P0CG47 1-75; P0CG47 1-76; P0CG47 1-76) (complex)” here?
A: The Kd was 2430 nM.

Q: And the Kd (USP37(700-851) (human))?
A: Its Kd is 2710 nM.

Q: What about the Kd (AN13A(479-594) (human)) of the same substance?
A: The Kd was 740 nM.
